# Experimental data taken from patent US20220144956A1 (published 2022).
# Substitutions are numbered along the chain they refer to.
# B1: H1.34 L1 XENP34490 (antibody, V domains shown)
# VH: QLQVQESGPGLVKPSETLSLTCTVSGGSISNSYFSWHWIRQPPGKGLEWIGSFYYGEKTYYNPSLKSRATISIDTSKSQFSLKLSSVTAADTAVYYCPRGPTMIRGVIDSWGQGTLVTVSS
# VL: EIVLTQSPATLSLSPGERATLSCRASQSVRSYLAWYQQKPGQAPRLLIYDASNRATGIPARFSGSGSGTDFTLTISSLEPEDFAVYYCQQRSNWPPTFGQGTKVEIK
# B2: H1.25 L1 XENP34481 (antibody, V domains shown)
# VH: B1 VH with F34H, H37G
# VL: B1 VL
# B3: H1.32 L1 XENP34488 (antibody, V domains shown)
# VH: B1 VH with W36M, H37G
# VL: B1 VL
# B4: H1 L1 WT XENP28298 (antibody, V domains shown)
# VH: B1 VH with H37G
# VL: B1 VL
# B5: H1.18 L1 XENP34474 (antibody, V domains shown)
# VH: B1 VH with S32A, H37G
# VL: B1 VL
# B6: H1.33 L1 XENP34489 (antibody, V domains shown)
# VH: B1 VH with H37A
# VL: B1 VL
# B7: H1.5 L1 XENP34461 (antibody, V domains shown)
# VH: B1 VH with P9S, H37G
# VL: B1 VL
# B8: H1.31 L1 XENP34487 (antibody, V domains shown)
# VH: B1 VH with W36I, H37G
# VL: B1 VL
# B9: H1.26 L1 XENP34482 (antibody, V domains shown)
# VH: B1 VH with F34S, H37G
# VL: B1 VL
# B10: H1.17 L1 XENP34473 (antibody, V domains shown)
# VH: B1 VH with N31R, H37G
# VL: B1 VL
# B11: H1.20 L1 XENP34476 (antibody, V domains shown)
# VH: B1 VH with S32T, H37G
# VL: B1 VL
# B12: H1.9 L1 XENP34465 (antibody, V domains shown)
# VH: B1 VH with I29F, H37G
# VL: B1 VL
# B13: H1.11 L1 XENP34467 (antibody, V domains shown)
# VH: B1 VH with N31D, H37G
# VL: B1 VL
# B14: H1.3 L1 XENP34459 (antibody, V domains shown)
# VH: B1 VH with L2V, V4L, H37G
# VL: B1 VL
# B15: H1.16 L1 XENP34472 (antibody, V domains shown)
# VH: B1 VH with N31Q, H37G
# VL: B1 VL
# B16: H1.29 L1 XENP34485 (antibody, V domains shown)
# VH: B1 VH with S35T, H37G
# VL: B1 VL
# B17: H1 L1.12 XENP34575 (antibody, V domains shown)
# VH: B1 VH with H37G
# VL: B1 VL with S31T
# B18: H1 L1.22 XENP34585 (antibody, V domains shown)
# VH: B1 VH with H37G
# VL: B1 VL with D50S
# B19: H1 L1.42 XENP34605 (antibody, V domains shown)
# VH: B1 VH with H37G
# VL: B1 VL with S92G
# B20: H1 L1.35 XENP34598 (antibody, V domains shown)
# VH: B1 VH with H37G
# VL: B1 VL with V85T
# B21: H1 L1.40 XENP34603 (antibody, V domains shown)
# VH: B1 VH with H37G
# VL: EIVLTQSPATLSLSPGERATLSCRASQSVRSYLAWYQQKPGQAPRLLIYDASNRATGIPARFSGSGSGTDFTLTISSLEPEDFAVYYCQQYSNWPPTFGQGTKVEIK
# B22: H1 L1.9 XENP34572 (antibody, V domains shown)
# VH: B1 VH with H37G
# VL: B1 VL with R30Q
# B23: H1 L1.36 XENP34599 (antibody, V domains shown)
# VH: B1 VH with H37G
# VL: B1 VL with R91E
# B24: H1 L1.44 XENP34607 (antibody, V domains shown)
# VH: B1 VH with H37G
# VL: B1 VL with S92T
# B25: H1 L1.32 XENP34595 (antibody, V domains shown)
# VH: B1 VH with H37G
# VL: B1 VL with E79Q
# B26: H1 L1.26 XENP34589 (antibody, V domains shown)
# VH: B1 VH with H37G
# VL: B1 VL with T56S
# B27: H1 L1.8 XENP34571 (antibody, V domains shown)
# VH: B1 VH with H37G
# VL: B1 VL with R30K
# B28: H1 L1.15 XENP34578 (antibody, V domains shown)
# VH: B1 VH with H37G
# VL: B1 VL with A34N
# B29: H1 L1.39 XENP34602 (antibody, V domains shown)
# VH: B1 VH with H37G
# VL: B1 VL with R91Q
# B30: H1 L1.28 XENP34591 (antibody, V domains shown)
# VH: B1 VH with H37G
# VL: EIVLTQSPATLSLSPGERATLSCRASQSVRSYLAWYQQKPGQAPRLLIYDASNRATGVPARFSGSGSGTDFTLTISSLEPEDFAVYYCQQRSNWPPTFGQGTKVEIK
# B31: H1 L1.10 XENP34573 (antibody, V domains shown)
# VH: B1 VH with H37G
# VL: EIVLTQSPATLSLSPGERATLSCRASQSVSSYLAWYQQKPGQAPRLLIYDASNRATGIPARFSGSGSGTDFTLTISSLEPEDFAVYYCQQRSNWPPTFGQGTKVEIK
# B32: H1 L1.18 XENP34581 (antibody, V domains shown)
# VH: B1 VH with H37G
# VL: B1 VL with Q42K
# B33: H1 L1.14 XENP34577 (antibody, V domains shown)
# VH: B1 VH with H37G
# VL: B1 VL with Y32N
# B34: H1 L1.17 XENP34580 (antibody, V domains shown)
# VH: B1 VH with H37G
# VL: B1 VL with A34T
# B35: H1 L1.13 XENP34576 (antibody, V domains shown)
# VH: B1 VH with H37G
# VL: B1 VL with Y32H
# B36: H1 L1.16 XENP34579 (antibody, V domains shown)
# VH: B1 VH with H37G
# VL: B1 VL with A34S
# B37: H1 L1.21 XENP34584 (antibody, V domains shown)
# VH: B1 VH with H37G
# VL: B1 VL with D50G
# B38: H1 L1.41 XENP34604 (antibody, V domains shown)
# VH: B1 VH with H37G
# VL: B1 VL with S92A
# B39: H1 L1.25 XENP34588 (antibody, V domains shown)
# VH: B1 VH with H37G
# VL: B1 VL with N53T
# B40: H1 L1.11 XENP34574 (antibody, V domains shown)
# VH: B1 VH with H37G
# VL: B1 VL with S31N
# B41: H1 L1.27 XENP34590 (antibody, V domains shown)
# VH: B1 VH with H37G
# VL: B1 VL with G57S
# B42: H1 L1.38 XENP34601 (antibody, V domains shown)
# VH: B1 VH with H37G
# VL: B1 VL with R91S
# B43: H1 L1.19 XENP34582 (antibody, V domains shown)
# VH: B1 VH with H37G
# VL: B1 VL with Q42L
# B44: H1 L1.33 XENP34596 (antibody, V domains shown)
# VH: B1 VH with H37G
# VL: B1 VL with P80S
# B45: H1 L1.23 XENP34586 (antibody, V domains shown)
# VH: B1 VH with H37G
# VL: B1 VL with N53D
# B46: H1 L1.31 XENP34594 (antibody, V domains shown)
# VH: B1 VH with H37G
# VL: B1 VL with S77R
# B47: H1 L1.29 XENP34592 (antibody, V domains shown)
# VH: B1 VH with H37G
# VL: B1 VL with A60D
# Biological target: T1, human TGFßRII (antigen of the Octet experiments) (human, UniProt P37173 23-166)
# Assay: BLI (Octet)
# T1 sequence (P37173 23-166): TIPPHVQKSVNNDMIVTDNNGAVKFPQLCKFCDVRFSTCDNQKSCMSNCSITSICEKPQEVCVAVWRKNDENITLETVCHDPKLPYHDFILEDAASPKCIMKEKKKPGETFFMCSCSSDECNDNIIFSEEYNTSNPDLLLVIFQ
row,Kd,Binder
1,5.73 nM,B1
2,0.415 nM,B2
3,2.47 nM,B3
4,0.001 nM,B4
5,0.205 nM,B5
6,0.414 nM,B6
7,0.245 nM,B7
8,7.28 nM,B8
9,0.273 nM,B9
10,0.292 nM,B10
11,0.559 nM,B11
12,0.496 nM,B12
13,0.419 nM,B13
14,0.001 nM,B14
15,0.407 nM,B15
16,1.79 nM,B16

# Biological target: T1, human TGFßRII (antigen of the Octet …)
# Assay: BLI (Octet)
# Remark: another data set of the same source
row,Kd,Binder
1,0.539 nM,B17
2,0.782 nM,B18
3,2.94 nM,B19
4,0.344 nM,B20
5,23.1 nM,B21
6,16.4 nM,B22
7,59.3 nM,B23
8,2.03 nM,B24
9,1 nM,B25
10,0.99 nM,B26
11,1.11 nM,B27
12,2.48 nM,B28
13,21 nM,B29
14,0.891 nM,B30
15,10.7 nM,B31
16,0.831 nM,B32

row,Kd,Binder
1,1.26 nM,B33
2,0.622 nM,B34
3,1.19 nM,B35
4,0.464 nM,B36
5,0.429 nM,B37
6,2.49 nM,B38
7,0.921 nM,B39
8,0.597 nM,B40
9,0.92 nM,B41
10,24.5 nM,B42
11,0.905 nM,B43
12,0.873 nM,B44
13,0.479 nM,B45
14,0.706 nM,B46
15,0.589 nM,B47
